Experimental data as given in the supplement of paper PMC12042874.
± gives the uncertainty stated by the source.

Assay: amyloid nucleation score (Sup35N fusion, yeast selection) (log enrichment); library NNK2; higher = more nucleation; inactive = no reads after selection
Procedure, shortened: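 On medium lacking adenine and uracil, psi-negative yeast expressing peptides of 20 random codons fused to Sup35N were grown 7 days at 30°C after a 24-hour induction with 100 μM copper sulfate. Illumina sequencing of input and output plasmid inserts gave the reads, and sequences under 100 input reads were excluded. The nucleation score is the DiMSum log enrichment of output over input reads, centred on the mode score of non-aggregating sequences.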

Substance | amyloid nucleation score
VAIGLLVEGGFFIHRNICLW | -1.36 ± 0.62
VAILIMHCGAGSCRQMLMDS | 0.305 ± 0.45
VALFS | -0.029 ± 0.8
VALRFTIMDCRIYLYSLNVF | 0.125 ± 0.79
VAPTETRVDPIPSVGPVPGA | 1.66 ± 0.34
VARFILHCY | -0.492 ± 0.28
VASYAIGSFYADVACVEPRY | 0.835 ± 0.43
VAVFLNNA | inactive
VCHHSSI | inactive
VCIMSRYKLQLLKNSNGITH | 2.53 ± 0.16
VCIRVRRDRKVMWDWSV | 1.5 ± 0.24
VCRPRTTNIGAWRRFRFLFW | -0.601 ± 0.41
VCVFMDFHLYMMSARQSTKD | 7.894 ± 0.042
VCYKIVKTSYNSFWDF | 4.39 ± 0.1
VCYMGTRCGWNSRARVFWGS | 2.69 ± 0.11
VCYMLRNFCDVQHKK | 0.1 ± 0.63
VDCTEV | 1.26 ± 0.26
VDFCVDVLFC | -1.06 ± 1.1
VDGVSLSGEFFNTIVNNFCI | 6.08 ± 0.062
VDLSLTHYCARSNYLGGPSF | 3.17 ± 0.076
VDNIVHMWDRNWSPGRYMDR | -0.679 ± 0.44
VDNNVGSWPLWP | -0.08 ± 1
VDNSLVNMLTAMGWSGFMHT | 0.255 ± 0.49
VDPHFFIRLFLEYHNVMSWY | inactive
VDRESRFWWEGVQGFLDYWV | -0.614 ± 0.79

Substance | amyloid nucleation score
VDRFPVLVPKGWHMRRWCIR | 0.669 ± 0.39
VDSTFSHSSSFWELYRPTHL | -1.41 ± 1.1
VDSYHGYTDRNALSFLCSLV | 0.342 ± 0.23
VDTGEVNTF | 1.76 ± 0.086
VDTRRMARKS | 1.28 ± 0.27
VDTRS | 0.382 ± 0.8
VEAIWHWVCYWSGMWSLGPG | 3.69 ± 0.057
VEMLFLSFMRPVLLGTMVAV | 0.007 ± 1.1
VESLRLRRSMVRNLILSSSC | -0.125 ± 0.63
VEVGLIVGSCSILI | -0.525 ± 0.64
VFCSSRFCIEECGC | -0.453 ± 0.64
VFFFKRLYTKVCF | inactive
VFGVLPIIGYPVRVLCVRFI | -0.43 ± 1.1
VFGWS | 0.745 ± 0.22
VFIRAGIVFQFWCNG | 7.22 ± 0.043
VFKRNQ | 0.769 ± 0.41
VFLVHPTFSFKNRVCLNFVW | -0.081 ± 1.1
VFMFMTQVSRKSYALPRTAA | 3.02 ± 0.12
VFNSTFANLW | 2.6 ± 0.092
VFRVCEMDSSLFHYGLALDR | 0.521 ± 0.3
VFSGTSMRGTEEIKMSWCEK | 7.686 ± 0.044
VFSTTSLNV | -0.647 ± 0.34
VFSYYMSRFLGATCMYKAAG | 5.1 ± 0.072
VFTSGSRCHPWLE | 1.45 ± 0.27
VFTVLYALSCLSFIFVTV | 4.04 ± 0.047

Substance | amyloid nucleation score
VFWGILMRGVRRTFSDCAGT | -1.47 ± 0.75
VFWITAQMYY | 2.18 ± 0.076
VFYNIL | inactive
VFYVTYTS | 5.76 ± 0.074
VGGQRHWYLYHDSLHFPQLE | 0.396 ± 0.62
VGGVIYAYGFVFF | 7.381 ± 0.029
VGKWVRGQTSLLLVAWSAIY | 0.28 ± 0.61
VGLNYNAMAHTSRGSF | 0.236 ± 0.38
VGPPEIWVEFFAV | -0.813 ± 1.1
VGRNYLWYRTMPDIYCQVCG | 1.62 ± 0.077
VGTILAPGGLWGMEVCWQTK | 3.06 ± 0.12
VGTPEHKLFYGLCVALGQFQ | inactive
VGVWATGRGCSISEYNGKNR | 1.09 ± 0.12
VHFMIMQNSNCYCVKHIDFM | 9.425 ± 0.04
VHLLGDFGLASQRRNECKLL | 0.477 ± 0.28
VHLTAVWCLDRRRVRKIFIV | -0.802 ± 0.76
VICLCVLFRGSCRIKILDIV | -1.37 ± 1.1
VICNLDCLEVEGGILDQ | -1.04 ± 1.1
VIDVKFVGYILQVYVGVSFG | 0.026 ± 1.1
VIEMRHDRFFTVYSVEITAG | 0.623 ± 0.52
VIFIINELYGCIASNERVCA | 6.281 ± 0.049
VIFTGKDLLVSLQTKCLAVW | 0.942 ± 0.81
VIGTTGMYLCVVLETIHNWC | 1.07 ± 0.26
VIIINIVFKSGMGQLLGHRR | 6.53 ± 0.074
VIKTG | inactive

Substance | amyloid nucleation score
VIQIVNFSDNIMTCLHNHLQ | 5.64 ± 0.086
VIVCCGSCLHRE | 9.721 ± 0.05
VIWHWVAGH | 5.71 ± 0.087
VIYLIGSHYTLVSNRLYEIG | 8.186 ± 0.08
VIYLVLGKTRLNIELSVLST | 1.16 ± 0.45
VIYMNAGLYLRLKRRFDYVV | 0.72 ± 0.58
VKGGSRS | -0.186 ± 0.49
VKGISWGLRFS | inactive
VKGKE | 2.31 ± 0.14
VKIMMELPLKIDGFLSHVRR | 0.088 ± 0.24
VKLTLRVLLMSRTETHTVCR | 0.494 ± 0.44
VKNFTPFRHILVITYNITFN | 1.9 ± 0.14
VKPVSVFL | -0.11 ± 0.63
VKQWT | 1.74 ± 0.24
VKSRRLTYNS | 0.192 ± 0.79
VKSTYAYPPNVVDPHIGWGH | 0.99 ± 0.24
VLACTEGNVLFEDDLRTKGL | 1.56 ± 0.35
VLAKISTTE | 0.705 ± 0.15
VLASWSDFKSRGRGNSSVSG | 1.24 ± 0.33
VLDSINVSVCSWRVSCVTWL | 7.709 ± 0.033
VLEFFLKSSF | 3.1 ± 0.14
VLEGIYLLMKVCLIYPRSYD | -1.8 ± 1.1
VLIFMIKVWARITLMGYSRL | -0.666 ± 0.3
VLKCGHKYLVIDSWKL | 1.78 ± 0.092
VLKPYM | -1.3 ± 0.54

Substance | amyloid nucleation score
VLLLAQHVLSGSNFTMG | 3.44 ± 0.045
VLLRDNGLELFAP | 0.779 ± 0.3
VLLRVRRCYSVPTFRVWSAT | 1.39 ± 0.18
VLLTNQRMVFCMGRFAPRVG | -0.556 ± 0.32
VLPQDKNMILYYKSLLHLFC | 0.823 ± 0.44
VLRSVRIFLDN | 1.3 ± 0.15
VLSEI | 0.607 ± 0.25
VLSLHDSVLLYRSAGIRYGW | 5.03 ± 0.058
VLSNKFI | inactive
VLSNYGNYISDWQLQLRLT | -0.149 ± 0.32
VLSVISLFGHILVMFLERKV | -0.13 ± 0.76
VLTVWPYHCAIVEILSGCVL | 5.98 ± 0.081
VLVCRFQSIFGILVVASCVK | -1.53 ± 0.55
VLWCDKWVGNNMKDGELTLW | 0.446 ± 0.43
VLYFLLLFFRD | inactive
VMKFMWKMMLNRERAPYHVL | -0.784 ± 0.49
VMLSLMDKLEYMPV | 1.31 ± 0.32
VMNHSQL | 3.92 ± 0.051
VMTIVIFGLYNY | 2.35 ± 0.18
VNAFLSLKSKACHWACGNDD | 3.67 ± 0.055
VNEIWYDLDYEKVGFV | 2.81 ± 0.074
VNFLWE | -0.447 ± 1.1
VNFYSALSSDNTRMYWLLTV | -0.898 ± 1.1
VNLSTGSRDLRGYWTTPIFQ | -0.815 ± 0.54
VNRPATPFEGSQCLIIYSRV | -0.613 ± 0.45

Substance | amyloid nucleation score
VPCRSPVSGASKRTYLLINV | 0.045 ± 0.31
VPKAWTVWAQVPINWSARQA | 0.737 ± 0.62
VPLCDVYWA | -0.902 ± 0.61
VPTCN | 0.123 ± 0.54
VQDYFFSCFATRSV | 3.26 ± 0.059
VQGLHCWIG | inactive
VQISWRFVPWI | 1.79 ± 0.12
VQYMHNRMVLWFFSDPLKDR | 2.58 ± 0.099
VRCSVCVGACEHGPVN | 1.27 ± 0.61
VRDSSNYMTLFRCSNFWHTR | 6.488 ± 0.051
VRDVKLLPKMVGSNIIGSVL | inactive
VRFFYSFVPT | inactive
VRFIAR | inactive
VRFPTSLFSAEQCTPALCSV | 0.066 ± 1
VRFQELAR | 0.343 ± 0.27
VRFSQKYCSVDIAMQRLFMV | -0.625 ± 0.25
VRFSVLRFGKLCPSGLWRVR | 0.255 ± 1.1
VRGAIVQKALDCKSVDKSLE | inactive
VRGLFVLTVLEVS | -0.161 ± 1.1
VRLRTHMFY | -0.831 ± 0.76
VRNGFKMRRRMSSPVCETLL | -0.642 ± 1.1
VRPFECGFTLPVWGG | 0.923 ± 0.81
VRVDGPTLWCTQVRLSGERA | 0.951 ± 0.17
VRWNIVKSCAVMDSNGIMWV | 0.432 ± 0.33
VRYKSYMDVS | 0.87 ± 0.48

Substance | amyloid nucleation score
VSAKVFSGGKESVMMCWPPL | 1.58 ± 0.41
VSAWWQDVYSCTHTHAPAAQ | 5.46 ± 0.098
VSCAESVGIYINYWFLNCQE | 8.702 ± 0.03
VSCCNLVVDLKRTILLFGGR | 7.504 ± 0.052
VSCDNASSVLFFVRTTIWCT | 0.751 ± 0.74
VSGMPIKMR | 0.886 ± 0.34
VSHMNCLDMICHLWISQLVL | 1.65 ± 0.098
VSHRIFGGNMWPGKSHECMC | inactive
VSIIRIKYSNQAISVRNSDS | 4.155 ± 0.038
VSISKVFAAFVFLEPANTRI | 5.36 ± 0.097
VSKNYDHCELRHMECAYWYT | 0.211 ± 0.19
VSKPQKRFKDEFYSLLSVKF | -0.55 ± 0.76
VSLHKRPTWLPVCIARYGWS | 0.333 ± 0.24
VSNAGSSTKDILGIHRS | -0.06 ± 1.1
VSPNPIWIVEKWPI | -1.63 ± 0.62
VSQFYSMPLTSSYWSLVSSL | 0.147 ± 0.65
VSRGNAGWS | 3.6 ± 0.075
VSSHNLMPNRNWMFETQLSW | -0.297 ± 1.1
VSSNSVWSIY | -1.01 ± 0.44
VSTLRQGWSILQTPNYVRS | -0.219 ± 0.76
VSVGNPFSVNRQVYCPTTEW | -1.38 ± 0.62
VSVVDGSILMNLCLRLVLRR | -0.068 ± 0.79
VTANNFKWVVIWLSWRGYGD | -1.48 ± 1.1
